# Reference: patent US20190315799
# Test system: SpyTag-CsgA
Substance,amylase activity,"PTDH activity (OD 340 nm, absorbance of formed NADH)"
amylase-SpyCatcher,amylase activity was observed throughout the experiment,
PTDH-SpyCatcher,,the thin cotton cloth exhibited almost exclusive specific-enzyme binding
